Experimental data published in patent publication US20190233495A1 (Sanofi, published 2019).
Non-standard residues stand in square brackets, D forms with d. Nle = CCCC[C@H](N)C(=O)O; Aib = CC(C)(N)C(=O)O

T1: RXFP1 receptor (UniProt Q9HBX9 1-757, limits assumed)
T1 sequence (looked up): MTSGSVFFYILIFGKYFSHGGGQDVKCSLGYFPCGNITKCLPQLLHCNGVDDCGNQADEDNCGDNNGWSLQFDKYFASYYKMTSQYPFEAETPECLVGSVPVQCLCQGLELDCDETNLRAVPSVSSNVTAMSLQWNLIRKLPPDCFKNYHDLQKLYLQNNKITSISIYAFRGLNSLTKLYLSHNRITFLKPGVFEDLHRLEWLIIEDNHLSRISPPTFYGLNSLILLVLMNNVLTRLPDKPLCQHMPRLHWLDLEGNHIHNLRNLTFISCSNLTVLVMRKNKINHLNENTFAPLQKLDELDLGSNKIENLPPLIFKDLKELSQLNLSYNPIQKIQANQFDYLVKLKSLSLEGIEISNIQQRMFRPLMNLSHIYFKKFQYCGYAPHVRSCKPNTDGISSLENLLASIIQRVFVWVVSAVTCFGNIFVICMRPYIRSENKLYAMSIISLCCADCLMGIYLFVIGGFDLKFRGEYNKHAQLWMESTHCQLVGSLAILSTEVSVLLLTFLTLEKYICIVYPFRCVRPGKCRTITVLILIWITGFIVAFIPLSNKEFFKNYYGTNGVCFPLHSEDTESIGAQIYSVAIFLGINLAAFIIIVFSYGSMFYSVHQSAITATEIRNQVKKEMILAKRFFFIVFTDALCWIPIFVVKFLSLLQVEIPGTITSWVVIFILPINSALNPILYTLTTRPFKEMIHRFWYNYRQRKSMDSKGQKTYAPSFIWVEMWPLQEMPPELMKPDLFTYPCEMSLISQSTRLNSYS


Molecular target: T1, RXFP1 receptor
Assay: cell-based or functional assay

| Binder | cAMP assay in OVCAR 5 cells EC50 | cAMP assay in OVCAR 5 cells Emax |
| --- | --- | --- |
| Ac-LEGREKVRAQI[Aib][Aib]EG[Nle]STWS[Aib]RKK(Ac)-NH2 (SMILES CCCC[C@H](NC(=O)CNC(=O)[C@H](CCC(=O)O)NC(=O)C(C)(C)NC(=O)C(C)(C)NC(=O)[C@@H](NC(=O)[C@H](CCC(N)=O)NC(=O)[C@H](C)NC(=O)[C@H](CCCNC(=N)N)NC(=O)[C@@H](NC(=O)[C@H](CCCCN)NC(=O)[C@H](CCC(=O)O)NC(=O)[C@H](CCCNC(=N)N)NC(=O)CNC(=O)[C@H](CCC(=O)O)NC(=O)[C@H](CC(C)C)NC(C)=O)C(C)C)[C@@H](C)CC)C(=O)N[C@@H](CO)C(=O)N[C@H](C(=O)N[C@@H](Cc1c[nH]c2ccccc12)C(=O)N[C@@H](CO)C(=O)NC(C)(C)C(=O)N[C@@H](CCCNC(=N)N)C(=O)N[C@@H](CCCCN)C(=O)N[C@@H](CCCCNC(C)=O)C(N)=O)[C@@H](C)O) [SEQ ID NO: 21] | 0.0328 µM | 96% |
| Ac-LEGREKVRAQI[Aib][Aib]EG[Nle]STWA[Aib]RKK-NH2 (SMILES CCCC[C@H](NC(=O)CNC(=O)[C@H](CCC(=O)O)NC(=O)C(C)(C)NC(=O)C(C)(C)NC(=O)[C@@H](NC(=O)[C@H](CCC(N)=O)NC(=O)[C@H](C)NC(=O)[C@H](CCCNC(=N)N)NC(=O)[C@@H](NC(=O)[C@H](CCCCN)NC(=O)[C@H](CCC(=O)O)NC(=O)[C@H](CCCNC(=N)N)NC(=O)CNC(=O)[C@H](CCC(=O)O)NC(=O)[C@H](CC(C)C)NC(C)=O)C(C)C)[C@@H](C)CC)C(=O)N[C@@H](CO)C(=O)N[C@H](C(=O)N[C@@H](Cc1c[nH]c2ccccc12)C(=O)N[C@@H](C)C(=O)NC(C)(C)C(=O)N[C@@H](CCCNC(=N)N)C(=O)N[C@@H](CCCCN)C(=O)N[C@@H](CCCCN)C(N)=O)[C@@H](C)O) [SEQ ID NO: 22] | 0.0571 µM | 102% |
| Ac-LEGREKVRAQI[Aib][Aib]EG[Nle]STWT[Aib]RKK-NH2 (SMILES CCCC[C@H](NC(=O)CNC(=O)[C@H](CCC(=O)O)NC(=O)C(C)(C)NC(=O)C(C)(C)NC(=O)[C@@H](NC(=O)[C@H](CCC(N)=O)NC(=O)[C@H](C)NC(=O)[C@H](CCCNC(=N)N)NC(=O)[C@@H](NC(=O)[C@H](CCCCN)NC(=O)[C@H](CCC(=O)O)NC(=O)[C@H](CCCNC(=N)N)NC(=O)CNC(=O)[C@H](CCC(=O)O)NC(=O)[C@H](CC(C)C)NC(C)=O)C(C)C)[C@@H](C)CC)C(=O)N[C@@H](CO)C(=O)N[C@H](C(=O)N[C@@H](Cc1c[nH]c2ccccc12)C(=O)N[C@H](C(=O)NC(C)(C)C(=O)N[C@@H](CCCNC(=N)N)C(=O)N[C@@H](CCCCN)C(=O)N[C@@H](CCCCN)C(N)=O)[C@@H](C)O)[C@@H](C)O) [SEQ ID NO: 23] | 0.128 µM | 95% |
| Ac-LEGREKVRAK(Ac)I[Aib][Aib]EG[Nle]STWS[Aib]RKK-NH2 (SMILES CCCC[C@H](NC(=O)CNC(=O)[C@H](CCC(=O)O)NC(=O)C(C)(C)NC(=O)C(C)(C)NC(=O)[C@@H](NC(=O)[C@H](CCCCNC(C)=O)NC(=O)[C@H](C)NC(=O)[C@H](CCCNC(=N)N)NC(=O)[C@@H](NC(=O)[C@H](CCCCN)NC(=O)[C@H](CCC(=O)O)NC(=O)[C@H](CCCNC(=N)N)NC(=O)CNC(=O)[C@H](CCC(=O)O)NC(=O)[C@H](CC(C)C)NC(C)=O)C(C)C)[C@@H](C)CC)C(=O)N[C@@H](CO)C(=O)N[C@H](C(=O)N[C@@H](Cc1c[nH]c2ccccc12)C(=O)N[C@@H](CO)C(=O)NC(C)(C)C(=O)N[C@@H](CCCNC(=N)N)C(=O)N[C@@H](CCCCN)C(=O)N[C@@H](CCCCN)C(N)=O)[C@@H](C)O) [SEQ ID NO: 24] | 0.0479 µM | 92% |
| Ac-LEGREKVRAK(Ac)I[Aib][Aib]EG[Nle]STWSK(Ac)RKKK-NH2 (SMILES CCCC[C@H](NC(=O)CNC(=O)[C@H](CCC(=O)O)NC(=O)C(C)(C)NC(=O)C(C)(C)NC(=O)[C@@H](NC(=O)[C@H](CCCCNC(C)=O)NC(=O)[C@H](C)NC(=O)[C@H](CCCNC(=N)N)NC(=O)[C@@H](NC(=O)[C@H](CCCCN)NC(=O)[C@H](CCC(=O)O)NC(=O)[C@H](CCCNC(=N)N)NC(=O)CNC(=O)[C@H](CCC(=O)O)NC(=O)[C@H](CC(C)C)NC(C)=O)C(C)C)[C@@H](C)CC)C(=O)N[C@@H](CO)C(=O)N[C@H](C(=O)N[C@@H](Cc1c[nH]c2ccccc12)C(=O)N[C@@H](CO)C(=O)N[C@@H](CCCCNC(C)=O)C(=O)N[C@@H](CCCNC(=N)N)C(=O)N[C@@H](CCCCN)C(=O)N[C@@H](CCCCN)C(=O)N[C@@H](CCCCN)C(N)=O)[C@@H](C)O) [SEQ ID NO: 25] | 0.0042 µM | 100% |
| Ac-LEGREKVRAQI[Aib][Aib]EG[Nle]STWS[Aib]RKK-NH2 (SMILES CCCC[C@H](NC(=O)CNC(=O)[C@H](CCC(=O)O)NC(=O)C(C)(C)NC(=O)C(C)(C)NC(=O)[C@@H](NC(=O)[C@H](CCC(N)=O)NC(=O)[C@H](C)NC(=O)[C@H](CCCNC(=N)N)NC(=O)[C@@H](NC(=O)[C@H](CCCCN)NC(=O)[C@H](CCC(=O)O)NC(=O)[C@H](CCCNC(=N)N)NC(=O)CNC(=O)[C@H](CCC(=O)O)NC(=O)[C@H](CC(C)C)NC(C)=O)C(C)C)[C@@H](C)CC)C(=O)N[C@@H](CO)C(=O)N[C@H](C(=O)N[C@@H](Cc1c[nH]c2ccccc12)C(=O)N[C@@H](CO)C(=O)NC(C)(C)C(=O)N[C@@H](CCCNC(=N)N)C(=O)N[C@@H](CCCCN)C(=O)N[C@@H](CCCCN)C(N)=O)[C@@H](C)O) [SEQ ID NO: 3] | 0.012 µM | 97% |
| Ac-LEGREKVRAK(Ac)I[Aib][Aib]EG[Nle]STWSK(Ac)RKKK(Ac)-NH2 (SMILES CCCC[C@H](NC(=O)CNC(=O)[C@H](CCC(=O)O)NC(=O)C(C)(C)NC(=O)C(C)(C)NC(=O)[C@@H](NC(=O)[C@H](CCCCNC(C)=O)NC(=O)[C@H](C)NC(=O)[C@H](CCCNC(=N)N)NC(=O)[C@@H](NC(=O)[C@H](CCCCN)NC(=O)[C@H](CCC(=O)O)NC(=O)[C@H](CCCNC(=N)N)NC(=O)CNC(=O)[C@H](CCC(=O)O)NC(=O)[C@H](CC(C)C)NC(C)=O)C(C)C)[C@@H](C)CC)C(=O)N[C@@H](CO)C(=O)N[C@H](C(=O)N[C@@H](Cc1c[nH]c2ccccc12)C(=O)N[C@@H](CO)C(=O)N[C@@H](CCCCNC(C)=O)C(=O)N[C@@H](CCCNC(=N)N)C(=O)N[C@@H](CCCCN)C(=O)N[C@@H](CCCCN)C(=O)N[C@@H](CCCCNC(C)=O)C(N)=O)[C@@H](C)O) [SEQ ID NO: 26] | 0.0145 µM | 100% |
| Ac-LEGREKVRAK(Ac)I[Aib][Aib]EG[Nle]STWS[Aib]RKK(Ac)K-NH2 (SMILES CCCC[C@H](NC(=O)CNC(=O)[C@H](CCC(=O)O)NC(=O)C(C)(C)NC(=O)C(C)(C)NC(=O)[C@@H](NC(=O)[C@H](CCCCNC(C)=O)NC(=O)[C@H](C)NC(=O)[C@H](CCCNC(=N)N)NC(=O)[C@@H](NC(=O)[C@H](CCCCN)NC(=O)[C@H](CCC(=O)O)NC(=O)[C@H](CCCNC(=N)N)NC(=O)CNC(=O)[C@H](CCC(=O)O)NC(=O)[C@H](CC(C)C)NC(C)=O)C(C)C)[C@@H](C)CC)C(=O)N[C@@H](CO)C(=O)N[C@H](C(=O)N[C@@H](Cc1c[nH]c2ccccc12)C(=O)N[C@@H](CO)C(=O)NC(C)(C)C(=O)N[C@@H](CCCNC(=N)N)C(=O)N[C@@H](CCCCN)C(=O)N[C@@H](CCCCNC(C)=O)C(=O)N[C@@H](CCCCN)C(N)=O)[C@@H](C)O) [SEQ ID NO: 27] | 0.0095 µM | 95% |
| Ac-LEGREKVRAK(Ac)I[Aib][Aib]EG[Nle]STWS[Aib]RKK(Ac)K(Ac)-NH2 (SMILES CCCC[C@H](NC(=O)CNC(=O)[C@H](CCC(=O)O)NC(=O)C(C)(C)NC(=O)C(C)(C)NC(=O)[C@@H](NC(=O)[C@H](CCCCNC(C)=O)NC(=O)[C@H](C)NC(=O)[C@H](CCCNC(=N)N)NC(=O)[C@@H](NC(=O)[C@H](CCCCN)NC(=O)[C@H](CCC(=O)O)NC(=O)[C@H](CCCNC(=N)N)NC(=O)CNC(=O)[C@H](CCC(=O)O)NC(=O)[C@H](CC(C)C)NC(C)=O)C(C)C)[C@@H](C)CC)C(=O)N[C@@H](CO)C(=O)N[C@H](C(=O)N[C@@H](Cc1c[nH]c2ccccc12)C(=O)N[C@@H](CO)C(=O)NC(C)(C)C(=O)N[C@@H](CCCNC(=N)N)C(=O)N[C@@H](CCCCN)C(=O)N[C@@H](CCCCNC(C)=O)C(=O)N[C@@H](CCCCNC(C)=O)C(N)=O)[C@@H](C)O) [SEQ ID NO: 28] | 0.0225 µM | 92% |
